According to paper PMC4747798:

Molecular target: SH2 domain (143-249) of CSRC (UniProt P12931)
Experiment: ITC

stoichiometry N: 1
Substance: human calmodulin (from UniProt P0DP23 1-149) (natural protein)
